One data set relates to Smu2. Kind of data set: Kinetic parameters for Smu2. The class given is biochemical, Streptococcus mutans. On the procedure: (§1) Quantitative assays using CB 1954 or SN 23862 as substrate were carried out at 37° C. by HPLC as previously described (2) (3). […] Incubation times varied according to the enzyme activity being studied.
A further data set addresses H. influenzae NfnB (Haemophilus influenzae, UniProt Q57431).
A further data set deals with C. jejuni NfnB (Campylobacter jejuni, UniProt Q0P9I8).
The next data set concerns Pae3. Description: Kinetic parameters for Pae3. The class given is biochemical, Pseudomonas aeruginosa. Particulars: menadione as substrate, NADPH as cofactor. The protocol: […] […] Incubation times varied according to the enzyme activity being studied.
The protein encoded by Pae3 was overexpressed in E. coli and purified by anion exchange chromatography.

For data set [1], the system named is Cc1cc2nc3c(=O)[nH]c(=O)nc-3n(C[C@H](O)[C@H](O)[C@H](O)COP(=O)(O)O)c2cc1C. Description: purified protein, by the assay type. Particulars: other: flavin substrates, cofactor not given; pH 7.0; 37.0 °C.
The next data set concerns CC1=CC(=O)c2ccccc2C1=O. Kind of data set: purified protein, by the assay type. The note with it: other: 1 mM NADPH; pH 7.0; 37.0 °C.
Data set [2] deals with Cc1cc2nc3c(=O)[nH]c(=O)nc-3n(C[C@H](O)[C@H](O)[C@H](O)COP(=O)(O)OP(=O)(O)OC[C@H]3O[C@@H](n4cnc5c(N)ncnc54)[C@H](O)[C@@H]3O)c2cc1C. Description: purified protein, by the assay type. The note with it: other: flavin substrates, cofactor not given; pH 7.0; 37.0 °C.
For another data set, the target named is YodC (Bacillus subtilis, UniProt P81102). Description: Substrate and cofactor specificity for YodC. On the procedure:
as §1
(§2) Assays were carried out spectrophotometrically at 37° C. in 10 mM Tris pH 7.5 using cytochrome c as terminal electron acceptor.

In the next data set the test system is Efa 1. Kind of data set: Kinetic parameters for Efa 1. Type of data set: biochemical, Enterococcus faecalis. From the text: This gene is more highly related in sequence to ydgI compared to the other sequences used to search databases.
Data set [3] can be described thus: Nitroreductase enzyme assay with SN 23862 as substrate (HPLC). The class given is biochemical.
The subject of another data set is V79 cells. Kind of data set: In vitro cytotoxicity test, prodrug + enzyme + cofactor, SRB assay. The class given is cell-based. Particulars: FIG. 4. The protocol: Microtitre plates (96 well) were obtained pre-seeded with V79 cells at 10,000 cells/ml (European Collection of Animal Cell Cultures, ECACC) in DMEM+10% foetal calf serum. All treatments were prepared on duplicate plates and transferred to the cells prior to adding enzyme (10 μl) to the appropriate wells. […] Enzymes were diluted in sterile PBS. All aqueous solutions were filter sterilised before use and operations carried out aseptically in a laminar flow hood. […] Cytotoxicity was quantified by sulphorhodamine B (SRB) assay. Briefly, the growth medium was removed and the cells fixed by addition of 100 μl per well of cold 10% TCA for 30 min. The TCA was removed and the fixed cells washed with water before adding 100 μl per well of 0.4% dye in 1% acetic acid and incubating at room temperature for 30 min. Excess dye was removed and the wells washed 4 times with 1% acetic acid. After air drying at room temperature the dye was solubilised by adding 100 μl of 10 mM Tris to each well and shaking for 15 min. […] Cytotoxicity towards treated cells was expressed as % of A492 of untreated controls and statistical analysis was performed using the Mann-Whitney test. ED50's were caculated using probit analysis.
A general note: In SRB staining, fixed cells bind dye roughly in proportion to their protein.

The format of data set [4] is biochemical. The note with it: Table 6.
Data set [5] deals with recombinant enzymes (antigens). Kind of data set: Western blots of antigens with rabbit antisera. The class given is binding. Particulars: antisera 1/10000 or 1/20000, ECL detection. The protocol: Recombinant enzymes were run on SDS PAGE 4-20% gradient at 0.05, 0.5, 5, 50 and 500 ng with 500 ng of the other antigens to test cross-reactivity. The antisera were added at a dilution of 1/10 000 or 1/20 000. Secondary antibody dilutions were as shown above and detection was by ECL (Amersham).
Antigens were run on SDS PAGE 4-20% gradient at 0.05, 0.5, 5, 50 and 500 ng with 500 ng of other antigens to test cross-reactivity. The antisera were added at a dilution of 1/10000 (α-P. gingivalis YwrO, α-YwrO BAM and α-H. influenzae NfnB) or 1/20000 (α-E. coli B NfnB and α-YdgI). Secondary antibody dilutions were as shown above and detection was by ECL.
(Immunoblotting shows a protein as a band on a membrane.)

Data set [6] in a line: Nitroreductase enzyme assay with CB 1954 as substrate (HPLC). Type of data set: biochemical.
Data set [7] is classed as biochemical. Particulars: Table 6. The source holds these as a separate data set.
Data set [8] is described as follows: Quinone reductase assay with menadione, cytochrome c as terminal electron acceptor. The class given is biochemical. On the procedure:
as §2

For data set [9], the system named is recombinant enzymes (antigens). Description: Polyclonal antisera titres by ELISA. The note with it: rabbit antiserum. Type of data set: binding. For orientation: An ELISA detects its analyte on a solid surface through an enzyme-linked reagent.
The nature of data set [10]: Flavin reductase assay with FMN and FAD. Type of data set: biochemical. The protocol:
as §2

The mark [11] stands for this setting: substrates, NADPH preferred cofactor.
Setting [12] is: listed as P. gingivalis YwrO homologue.
[13] abbreviates: listed as YwrO of P. gingivalis.

“Also recorded” adds a separate entry of the source. Like-named read-outs stand apart in the source and are kept apart here.

Sequence of YodC (P81102 2-202): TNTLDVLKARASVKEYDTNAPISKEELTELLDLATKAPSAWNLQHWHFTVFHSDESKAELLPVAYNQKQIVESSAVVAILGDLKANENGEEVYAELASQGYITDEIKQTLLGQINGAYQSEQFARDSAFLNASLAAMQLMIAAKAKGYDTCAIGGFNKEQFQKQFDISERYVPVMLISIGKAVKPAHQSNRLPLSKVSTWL
Sequence of H. influenzae NfnB (Q57431 whole entry): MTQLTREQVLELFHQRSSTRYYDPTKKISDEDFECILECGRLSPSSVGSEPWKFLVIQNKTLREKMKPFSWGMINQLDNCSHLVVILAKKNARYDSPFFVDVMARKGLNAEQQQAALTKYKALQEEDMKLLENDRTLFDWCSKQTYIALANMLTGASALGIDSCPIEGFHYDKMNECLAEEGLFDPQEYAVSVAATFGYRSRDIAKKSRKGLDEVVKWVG
Sequence of C. jejuni NfnB (Q0P9I8 entry or part of it): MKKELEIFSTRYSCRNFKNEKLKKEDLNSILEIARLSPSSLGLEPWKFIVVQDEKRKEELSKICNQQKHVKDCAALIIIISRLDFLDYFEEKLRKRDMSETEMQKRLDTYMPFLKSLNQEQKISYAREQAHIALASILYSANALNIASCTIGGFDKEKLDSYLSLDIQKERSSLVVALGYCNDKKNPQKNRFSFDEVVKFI

Consider NADPH, for which the Km is 1.3 µM in the data set with Smu2 (100 uM menadione) and 308 µM in the data set with Pae3. For the same molecule, the kcat in the data set on Smu2 (100 uM menadione) was 188.7 s⁻¹; on H. influenzae NfnB (menadione 100 μM) it was 154.2; at C. jejuni NfnB (20 μM menadione), 62.5 s⁻¹; in the data set with Pae3 it was 33.8 s⁻¹.

On to “C. jejuni NfnB (Campylobacter jejuni subsp. jejuni NCTC 11168 = ATCC 700819)”, for which the figures for the Km (in data set [1]; in the data set with CC1=CC(=O)c2ccccc2C1=O; in data set [2]) were 0.7 ± 0.2 μM μM, 1.3 ± 0.2 μM μM and 3.3 ± 0.4 μM μM, respectively.

Consider `CC1=CC(=O)c2ccccc2C1=O` [Menadione], for which the Km amounted to 2.7 µM with Smu2 (setting [11]); 1 ± 0.1 µM at YodC (cofactor NADH, 37° C., 10 mM Tris pH 7.5); 1.6 ± 0.2 µM on YodC (cofactor NADPH); 3.8 µM in the data set on Pae3; 107 µM in the data set with Efa 1 (substrates, cofactor not given). In addition, the kcat came to 201.0 s⁻¹ with Smu2 (setting [11]); 415.4 ± 14.8 s⁻¹ at YodC (cofactor NADH); 329.5 ± 18.4 s⁻¹ at YodC (cofactor NADPH); 24.1 on H. influenzae NfnB (1 mM NADH); 177.8 at H. influenzae NfnB (1 mM NADPH); 66.1 s⁻¹ on C. jejuni NfnB (1 mM NADPH). The kcat was 153.4 s⁻¹ with Pae3 and 264.8 s⁻¹ in the data set on Efa 1 (substrates, cofactor not given). The Ksi in the data set on Pae3 and in the data set on Efa 1 was 18.0 µM in each case.

B1: P. gingivalis YwrO: nitroreductase from Porphyromonas gingivalis, SEQ ID NO: 25 (protein, listed as Porphyromonas gingivalis)
chain: MKKTLVIVVHPDLTKSVINKAWAKAIEGAATIHHLYEQYPNGQIDLAHEQALLEAHDRIVFQFPLYWYAAPYLLKKWMDEVFTEGWAYGAGGDKMEGKEICAAVSCGSPKSAFAEGAQQCHTLRSYLNVFDGIAAFLRARFTGYHACYDSYNPRLPEMLPANCEAYLRFIKGE
As to B1, in data set [3] (Table 6), the “SN 23862 acitvity” value is given as “Yes”. The “activity with SN23862” value in [3] (setting [12]) is “active with SN23862; also recorded: too slow for kinetic parameters to be calculated accurately”. In the data set with V79 cells, the “in vitro cytotoxicity of SN 23862 with enzyme” value is reported as “lack of activity”. The Azo-Reductase result in data set [4] is “Yes”. For the same molecule, the “amount of antigen detected by its antiserum in Western blot” value in data set [5] is 500 ng. Further, the “kcat (CB 1954)” value in data set [6] came out at 3.2 s⁻¹. Further, the kcat for CB1954 (text) in data set [6] was 3.2 s⁻¹. Besides, in data set [6], the “reduction of CB1954: activity and product formed” value was “only the 4HX reduction product”. Moreover, the Km was 1200 µM in data set [6] (Table 6, 37° C., read-out: Km CB 1954) and 1200 µM in data set [6] (read-out: Km for CB1954). For the same molecule, the “CB 1954 product” value in [6] (Table 6, recombinant enzymes) came to 4HX. Moreover, the Cofactor result in [7] is “NADH”. In addition, in data set [8] (Table 6), the Quinone reductase result is “No”. Moreover, the “activity with menadione / quinone reductase” value in [8] (setting [12]) was “inactive with menadione or flavins”; in [8] (setting [13]), “little activity with menadione or flavins”. In data set [9] (10 days after booster), the Post-boost titre turned out to be 3100. For the same molecule, the “Pre-boost titre (50%)” value in [9] (after 8 weeks) stood at 1000. Also, in [10] (Table 6), the Flavin reductase entry is given as “No”. Further, the “flavin reductase activity” value in data set [10] (setting [12]) is “inactive with menadione or flavins”; in [10] (setting [13]), “little activity with menadione or flavins”.

The record behind these values is patent US20040014191A1, “Nitroreductase enzymes” (priority 1999, published 2004).
